{
  "source": "patent US20200368361A1",
  "about": "(Regeneron, published 2020)",
  "binders": {"B1": {"name": "H1H27756P-N297Q (antibody, V domains shown)", "VH": "QVQLVESGGGVVQPGRSLRLSCAASGFTFSNYDMHWVRQAPGKGLEWMAVISYDGINKYYADSVKGRFTISRDNSKNTLYLQMNSLRAEDTAVYYCAKGTYSWYFDLWGRGTLVTVSS", "VL": "not shown", "notes": "human IgG1 Fc with N297Q point mutation"}, "B2": {"name": "H1H27759P-N297Q (antibody, V domains shown)", "VH": "EVQLVESGGGFVQPGGSLRLSCAASGFTFSSYAMSWVRQAPGKGLEWVSAISGTGSNTYYADSVKGRFTISRDNSKNTLYLQMNSLRAEDTAVYYCAKDRVTTVTYYFDYWGQGTLVTVSS", "VL": "not shown", "notes": "human IgG1 Fc with N297Q point mutation; also called H1H27759P2-N297Q; H1xH27759P2"}, "B3": {"name": "H1H27760P-N297Q (antibody, V domains shown)", "VH": "EVQLVESGGGLVQPGRSLRLSCAASGFTFDAYAMHWVRQAPGKGLEWVSGISWNSGSIGYADSVKGRFTISRDNAKNSLYLQMNSLREEDTALYYCAKDKILELYYYGMDVWGQGTTVTVSS", "VL": "not shown", "notes": "human IgG1 Fc with N297Q point mutation; also called H1H27760P2-N297Q; H1H27760P2"}, "B4": {"name": "H1H27762P-N297Q (antibody, V domains shown)", "VH": "QVQLVQSGAEVKKPGSSVKVSCKASGGTFSRYDISWVRQAPGQGLEWMGGIIPIFGTSNYAQKFQGRVTITTDESTSTVYMELSSLRSEDTAVYYCARGGRYGWFDPWGQGTLVTVSS", "VL": "not shown", "notes": "human IgG1 Fc with N297Q point mutation; also called H1H27762P2-N297Q; H1H27762P2"}, "B5": {"name": "H1H27766P-N297Q (antibody, V domains shown)", "VH": "EVQLVESGGGLVQPGGSLRLSCAASGFTFSSFAMSWVRQAPGKELEWVSSISGRGGSTYYADSVRGRFTISRDNSKITLYLQMNSLRAEDTAVYYCAKDIVFRYTSSAYWYFDLWGRGTLVTVSS", "VL": "not shown", "notes": "human IgG1 Fc with N297Q point mutation; also called H1H27766P2-N297Q; H1H27766P2"}, "B6": {"name": "H1H27734P-N297Q (antibody, V domains shown)", "VH": "EVQLVESRGGLVQPGGSLRLSCAASGFTFSSYAMSWVRQAPGKGLEWVSAISGSGGSTFYADSVKGRFTISRDNSKNTVYLQMNSLRAEDTAVYYCAKALVLRFLEWLGDYWGQGTLVTVSS", "VL": "DIQMTQSPSTLSASVGDRVTITCRASQSISSWLAWFQQKPGKAPKLLIYKASSLESGVPSRFSGSGSGTEFTLTISSLQPDDFATYYCQQYKSYWTFGQGTKVEIKR", "notes": "as for B1"}, "B7": {"name": "H1H27739P-N297Q (antibody, V domains shown)", "VH": "EVQLVESGGGLVQPGGSLRLSCTASGFTFSSYAMSWVRQAPGKGLEWVSAISGTGSSTYFTDSVKGRFAISRDNSKNTLYLQMNSLRAEDTAVYYCAKDGEWLSTVTLFDYWGQGTLVTVSS", "VL": "EIVMTQSPATLSVSPGERATLSCRASQSVSSNLAWYQQKPGQAPRLLIYGASTRATGIPARFSGSGSGTDFTLTISSLQSEDFALYYCQQYFIWPPHPTFGPGTKVDIKR", "notes": "as for B1"}, "B8": {"name": "H1H27751P-N297Q (antibody, V domains shown)", "VH": "EVQLVESGGGLVQPGGSLRLSCAASGFTFSNYAMHWVRQAPGKGLEYVSAISSNGGSTYYADSVKGRITISRDNSKNTLYLQMGSLRAEDMAVYYCARGRPYYYYFGMDVWGQGTTVTVSS", "VL": "not shown", "notes": "as for B1"}, "B9": {"name": "H1H27731P-N297Q (antibody, V domains shown)", "VH": "QLQLQESGPGLVKPSETLSLTCTVSGGSISRISYYWGWIRQPPGKGLEWIGSIYDSGSTYYNPSLKSRVTISIDTSKNQFSLKLSSVTAADTAVYYCVRYSSSSAFAFDYWGQGTLVTVSS", "VL": "DIQMTQSPSSVSASVGDRVTITCRASQGISSWLAWYQQKPGKAPKLLIYAASSLQSGVPSRFSGSGSGTDFTLTISSLQPEDFATYYCQQANSFPFTFGPGTKVDIKR", "notes": "as for B1"}, "B10": {"name": "H1H27747P-N297Q (antibody, V domains shown)", "VH": "QVQLVESGGAVVQPGRSLRLSCAASGFTFSYYGMHWVRQAPGKGLEWVAVISYDGSKKYYADSVKGRFTISRDNSKNTLYLQMNSLRAEDTAVYYCAKDLTVDFYYGMDVWGQGTTVTVSS", "VL": "B9 VL with A51T, V58A, Y87F, F96Y, P100Q, V104L, D105E", "notes": "as for B1"}, "B11": {"name": "H1H27754P-N297Q (antibody, V domains shown)", "VH": "EVQLVESGGGLVQPGGSLRLSCAASGFTFRTYAMTWVRQAPGKGLDWVSAITGDGGNTYYADSVKGRFTISRDNSKNTLYLQMNSLRAEDTAIYYCAKDQRFSFALYYFDYWGQGTLVTVSS", "VL": "B9 VL with K42N, S52F, S93N, F96W, P100Q, D105E", "notes": "as for B1"}, "B12": {"name": "H1H21234N-N297Q (antibody, V domains shown)", "VH": "QVQLQESGPGLVKPSETLSLTCTVTGGSISRNYWSWIRQPPGKGLEWIGYIYYSGSIDYNPSLKSRVTISVDTSKNQFSLKLSSMTAADTAVYYCARDRWNWKYGMDVWGQGTTVIVSS", "VL": "EIVLTQSPGTLSLSPGERATLSCRASQTVRNNYLAWYHQKPGQAPRLLIYGASSRATGIPDRFSGSGSGTDFTLTISRLEPEDFTVYYCHQYGNSPWTFGQGTKMEIKR", "notes": "as for B1"}, "B13": {"name": "H1H27761P-N297Q (antibody, V domains shown)", "VH": "EVQLVESGGDLVQPGGSLRLSCSASGFTFNIYAMSWVRQAPGKGLEWVSGISGSGGSTYYADSVKGRFTISRDNSKNTLYFQMNSLRVEDTAVYYCAKKISSSSYYYYAMDVWGQGTTVTVSS", "VL": "not shown", "notes": "human IgG1 Fc with N297Q point mutation; also called H1H27761P2-N297Q; H1H27761P2"}, "B14": {"name": "H1H27729P-N297Q (antibody, V domains shown)", "VH": "QVQLVESGGGLVKPGGSLRLSCAASGFIFSDYYMSWIRQAPGKGLEWVSYISSSGTTIYGDSVKGRFTMSRDNAKNSLYLQMNSLRAEDTAVYYCARNYALFDYWGQGTLVTVSS", "VL": "DIQMTQSPSSLSASVGDRVTITCQASQDISKYLNWYQQKPGKAPKLLIYYTSNLETGVPSRFSGSGSGTDFTFTISSLQPEDIATYYCHQSDYLPFTFGPGTKVDIKR", "notes": "as for B1"}, "B15": {"name": "H1H27732P-N297Q (antibody, V domains shown)", "VH": "QLQLQESGPGLVKPSETLSLTCTVSGGSISSSTYYWGWIRQPPGKGLEWIGSFYYSGSTYYNPSLKSRVTISVGTSKNQFSLKLSSVTAADTAVYFCARGGLLGRPFVIWGQGTMVTVSS", "VL": "DIQMTQSPSSLSASVGDRVTITCRASQGIRNDLGWYQQKPGKAPKRLIYAASSLQSGVPSRFSGSGSGTEFTLTISSLQPEDFATYYCLQHNSYPLTFGGGTKVEIKR", "notes": "as for B1"}},
  "note": "Substitutions are numbered along the chain they refer to. Names may count otherwise.",
  "data": [
    {"molecular_target": "T1, monkey MSR1 extracellular domain expressed with a N-terminal hexahistidine-myc-myc tag (HMM-mfMSR1) (monkey (Macaca fascicularis))", "T1 chain": "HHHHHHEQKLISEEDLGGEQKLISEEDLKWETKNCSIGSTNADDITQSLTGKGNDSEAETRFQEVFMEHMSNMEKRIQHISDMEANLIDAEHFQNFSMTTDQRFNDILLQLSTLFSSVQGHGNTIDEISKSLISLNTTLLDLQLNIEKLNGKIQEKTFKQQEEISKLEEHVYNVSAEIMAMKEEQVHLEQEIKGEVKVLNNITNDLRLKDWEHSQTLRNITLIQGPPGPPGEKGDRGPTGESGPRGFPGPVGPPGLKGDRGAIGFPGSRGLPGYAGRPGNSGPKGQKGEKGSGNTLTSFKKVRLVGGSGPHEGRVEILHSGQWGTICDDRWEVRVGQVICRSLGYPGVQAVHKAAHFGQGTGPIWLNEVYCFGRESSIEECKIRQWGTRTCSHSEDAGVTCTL", "experiment": "SPR Biacore, 25C, mAb captured by anti-human Fc, MSR1 as analyte;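 note: Half-life of complex dissociation derived from kinetic rates, obtained by fitting Biacore 4000 sensorgrams to a 1:1 model including mass transport, run in HBS-ET buffer at pH 7.4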", "units": {"t½": "min"}, "experimental": "(§1) Binding affinities and kinetic constants of human anti-MSR1 antibodies for different MSR1 reagents were determined by real-time surface plasmon resonance (Biacore 4000). All binding studies were performed in 10 mM HEPES, 150 mM NaCl, 3 mM EDTA, and 0.05% v/v Surfactant Tween-20, pH 7.4 (HBS-ET) running buffer at 25° C. and 37° C.\n(§2) The association rate (kₐ) and dissociation rate (kd) were determined by fitting the real-time binding sensorgrams to a 1:1 binding model with mass transport limitation using Scrubber 2.0 c curve-fitting software.", "values": [
      {"binder": "B1", "t½": 5},
      {"binder": "B2", "t½": 13},
      {"binder": "B3", "t½": 16},
      {"binder": "B4", "t½": 6},
      {"binder": "B5", "t½": 145},
      {"binder": "B6", "t½": 4},
      {"binder": "B7", "t½": 80},
      {"binder": "B8", "t½": 15},
      {"binder": "B9", "t½": 247},
      {"binder": "B10", "t½": 13},
      {"binder": "B11", "t½": 657},
      {"binder": "B12", "t½": 593},
      {"binder": "B13", "t½": 19},
      {"binder": "B14", "t½": 5},
      {"binder": "B15", "t½": 364}
    ]},
    {"molecular_target": "T2, human MSR1 extracellular domain expressed with a N-terminal nonahistidine tag (His9-hMSR1); R&D Systems, Cat … (human, UniProt P21757 77-451)", "T2 construct": "extracellular domain; Bought protein; also called His-hMSR1", "T2 sequence": "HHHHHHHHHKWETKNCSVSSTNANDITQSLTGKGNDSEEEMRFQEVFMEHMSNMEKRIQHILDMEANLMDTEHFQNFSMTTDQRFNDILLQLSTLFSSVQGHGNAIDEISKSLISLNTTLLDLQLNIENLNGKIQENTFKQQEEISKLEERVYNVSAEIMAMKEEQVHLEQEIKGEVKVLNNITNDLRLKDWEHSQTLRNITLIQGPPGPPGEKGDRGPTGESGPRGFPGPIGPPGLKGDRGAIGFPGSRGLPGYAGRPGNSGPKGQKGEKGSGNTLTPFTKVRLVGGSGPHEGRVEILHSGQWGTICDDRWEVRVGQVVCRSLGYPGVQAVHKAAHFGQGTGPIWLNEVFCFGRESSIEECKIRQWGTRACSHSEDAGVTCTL", "experiment": "SPR Biacore, 25C, mAb captured by anti-human Fc, MSR1 as analyte;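 note: Half-life of complex dissociation derived from kinetic rates, obtained by fitting Biacore 4000 sensorgrams to a 1:1 model including mass transport, run in HBS-ET buffer at pH 7.4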", "units": {"t½": "min"}, "experimental": "as §1, §2", "values": [
      {"binder": "B1", "t½": 94},
      {"binder": "B2", "t½": 9},
      {"binder": "B3", "t½": 13},
      {"binder": "B4", "t½": 6},
      {"binder": "B5", "t½": 620},
      {"binder": "B6", "t½": 10},
      {"binder": "B7", "t½": 11},
      {"binder": "B8", "t½": 38},
      {"binder": "B9", "t½": 515},
      {"binder": "B13", "t½": 23},
      {"binder": "B14", "t½": 11}
    ]},
    {"molecular_target": "T2, human MSR1 extracellular domain …", "experiment": "SPR Biacore, 25C, mAb captured by anti-human Fc, MSR1 as analyte; calculated from kd fixed at 1.00E-05", "units": {"t½": "min"}, "experimental": "as §1, §2", "values": [
      {"binder": "B11", "t½": 1160},
      {"binder": "B12", "t½": 1160},
      {"binder": "B15", "t½": 1160}
    ]}
  ]
}
